Measurements published in US20250144209A1 (Alector, published 2025).

T1: mouse SIRPA expressed on CHO cells (mouse, UniProt P97797 32-513)
T1 construct: also called CHO-mSIRPA; CHO-MuSIRPα
T1 sequence: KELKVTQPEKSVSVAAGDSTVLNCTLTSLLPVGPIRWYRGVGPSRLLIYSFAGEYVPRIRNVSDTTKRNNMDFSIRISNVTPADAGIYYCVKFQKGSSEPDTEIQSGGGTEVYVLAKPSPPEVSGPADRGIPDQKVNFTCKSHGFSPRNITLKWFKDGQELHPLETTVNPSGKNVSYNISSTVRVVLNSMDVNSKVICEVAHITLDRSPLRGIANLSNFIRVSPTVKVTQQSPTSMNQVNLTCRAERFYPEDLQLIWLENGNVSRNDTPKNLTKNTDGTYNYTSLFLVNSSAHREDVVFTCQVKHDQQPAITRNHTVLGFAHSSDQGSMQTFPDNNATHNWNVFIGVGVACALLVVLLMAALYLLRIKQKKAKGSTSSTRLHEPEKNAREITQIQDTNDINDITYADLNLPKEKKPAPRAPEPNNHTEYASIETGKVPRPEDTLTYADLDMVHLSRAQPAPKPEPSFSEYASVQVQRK


Assays:
[1] = molecular target: T2, human SIRPA expressed on cells (human, UniProt P78324 31-504); test: flow cytometry on CHO-HuSIRPα cells
T2 sequence (P78324 31-504): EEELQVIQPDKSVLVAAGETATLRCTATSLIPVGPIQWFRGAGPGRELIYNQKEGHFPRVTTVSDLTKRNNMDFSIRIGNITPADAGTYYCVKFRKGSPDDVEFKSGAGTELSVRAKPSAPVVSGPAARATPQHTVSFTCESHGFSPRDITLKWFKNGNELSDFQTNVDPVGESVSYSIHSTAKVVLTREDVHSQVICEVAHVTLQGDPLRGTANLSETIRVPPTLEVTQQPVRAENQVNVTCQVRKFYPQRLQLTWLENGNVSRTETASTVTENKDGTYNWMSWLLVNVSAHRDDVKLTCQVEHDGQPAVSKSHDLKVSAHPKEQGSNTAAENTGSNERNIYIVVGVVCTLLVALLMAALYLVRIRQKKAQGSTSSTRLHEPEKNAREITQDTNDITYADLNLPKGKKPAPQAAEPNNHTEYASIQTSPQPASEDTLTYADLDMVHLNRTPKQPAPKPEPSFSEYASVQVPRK
Method: Initial characterization of SIRPA antibodies involved screening their ability to bind the human receptor ectopically expressed on the rodent Chinese hamster ovary cell line, henceforth referred to as CHO-huSIRPA, followed by screening on primary human macrophages. Cells were harvested, plated at 10⁵ cells/well in a 96-well plate, washed, and incubated in 100 μl FACS buffer containing Fc blocking reagent and […] of indicated monoclonal antibody. Cells were then washed twice and incubated in FACS buffer containing APC-conjugated secondary antibody diluted 1:200 for 30 minutes on ice. Cells were washed twice in cold FACS buffer and acquired on a BD FACS Canto. Data analysis and calculation of mean fluorescence intensity (MFI) values or % positive cells was performed with FlowJo (TreeStar) software version 10.0.7.

[2] = molecular target: T1, mouse SIRPA expressed on CHO cells; test: flow cytometry on CHO-MuSIRPα cells
[3] = molecular target: T1, mouse SIRPA expressed on CHO cells; test: flow cytometry on CHO-mSIRPA cells
[4] = molecular target: T2, human SIRPA expressed on cells; test: cell-based or functional assay
[5] = molecular target: T2, human SIRPA expressed on cells; test: flow cytometry titration on CHO-huSIRPA cells at 4 C
Method: Serial dilutions of monoclonal antibodies were added to 10⁵ CHO-huSIRPA cells and allowed to achieve binding equilibrium at 4° C. After addition of fluorescently labeled secondary antibody and brief washing steps, MFI values as a function of titrated antibody concentration was recorded via FACS analysis (FIG. 3D). Curves were fit using nonlinear regression analysis with Graphpad Prism 6 software.

[6] = molecular target: T3, recombinant soluble human SIRPA antigen, His-tagged (human, UniProt P78324 31-373); test: SPR, Biacore T200, antibody captured by anti-mouse IgG on CM5, soluble human SIRPA in solution, 1:1 fit
T3 construct: also called His-tagged soluble HuSIRPA protein; monomeric human SIRPA antigen; not shown: His tag
T3 sequence (P78324 31-373 limits assumed): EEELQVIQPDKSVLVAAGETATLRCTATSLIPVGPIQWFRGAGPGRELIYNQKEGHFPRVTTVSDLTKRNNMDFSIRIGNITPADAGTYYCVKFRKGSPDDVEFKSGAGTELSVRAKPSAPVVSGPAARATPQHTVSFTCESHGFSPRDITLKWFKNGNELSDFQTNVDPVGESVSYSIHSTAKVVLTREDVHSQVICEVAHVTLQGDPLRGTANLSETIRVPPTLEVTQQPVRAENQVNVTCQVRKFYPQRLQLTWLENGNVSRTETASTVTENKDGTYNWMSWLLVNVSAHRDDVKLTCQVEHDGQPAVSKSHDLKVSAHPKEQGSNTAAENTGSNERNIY
Method: Binding studies were performed using a Biacore T200 (GE). An anti-mouse IgG capture antibody was amine coupled to a CM5 sensor chip using standard NHS/EDC activation. SIRPA antibodies were diluted to 50 nM in 1×HBS-EP+ running buffer and captured onto sensor chip surface. Serial dilutions of recombinant soluble human SIRPA antigen were injected over captured SIRPA antibodies to record sensorgram traces. Data were processed by subtracting RU values from the reference cell as well as the buffer injections.

[7] = molecular target: T4, human SIRPA-DAP12 chimera expressed on BWZ/NFAT-luciferase reporter cells (human, UniProt O43914 62-113, limits assumed); test: flow cytometry on BWZ-Human SIRPA cells, titrated antibody detected with anti-mouse IgG APC (Relative MFI)
T4 construct: domain: intracellular ITAM motif; The intracellular ITIM motif of SIRPA was substituted with the intracellular ITAM motif of DAP12; also called BWZ-huSIRPA; BWZ-HuSIRPA

| Molecule | MFI, fold over background (fold over background) [1] | MFI, fold over background (fold over background) [2] | MFI, fold over background [1] [fold over background] | binding result [3] | phagocytosis of labeled Raji cells: CD14+/pHrodo+ macrophages over isotype-treated macrophages [4] [fold] | MFI, fold over background [2] [fold over background] | EC50 [5] [nM] | Kd [6] [nM] | koff [6] [s⁻¹] | kon [6] [M⁻¹ s⁻¹] | phagocytic activity of treated macrophages (FIG. 8C) [4] [fold] | EC50 (read off the curve) [7] [nM] |
| --- | --- | --- | --- | --- | --- | --- | --- | --- | --- | --- | --- | --- |
| mouse IgG1 isotype control (antibody) | 1 | 1 | – | – | – | – | – | – | – | – | – | – |
| 9C2 (antibody, IgG1, V domains shown, also called anti-SIRPA antibody 9C2; 9C2-DyLight 650) VH: EFQLQQSGAELVKPGASVKISCKASGYSLTGYNMNWVKQSRGKSLEWIGNINPHYGSSTYNQNFKDKATLTVDKSSSAAYMQFNSLTSEDSAVYYCAREGYDGVFDYWGQGTTLTVSS VL: QIVLSQSPAILSASPGEKVTMTCRASSSVSYMHWYQQKPGSSPKPWIYVTSNLASGVPTRFSGSGSGTSYSLTISRVEAEDAATYYCQQWSSNPRTFGGGTKLEIK | – | – | 128 | no binding (tested: 1.0 pg/ml (so in the source)) | 1.5 | 0.981 | 1.6 | 80 | 0.0045 | 54000 | – | – |
| 3F9 (antibody, IgG1, V domains shown, also called anti-SIRPA antibody 3F9; glycosylated 3F9) VH: EVKLVESGGGLVKPGGSLKLSCAASGFTFSSYAMSWVRQTPEKRLEWVATISDYGGSYTYYPDSVKGRFTISRDNAKYTLYLQMSSLRSEDTALYYCARPPYDDYYGGFAYWGQGTLVTVSA VL: DIVLTQSPASLAVSLGQRATISCRASKSVSSSGYSYMHWYQQKPGQPPKLLIYLASNLESGVPARFSGSGSGTDFTLNIHPVEEEDAATYYCQHNRELPCTFGGGTKLEIK | – | – | 137 | no binding (tested: 1.0 pg/ml (so in the source)) | 2.5 | 0.998 | 2.6 | 10 | 0.00057 | 55000 | 2 | ~1 |
| deglycosylated 3F9 (antibody, IgG1, V domains shown, Fc-linked glycan removed with EndoS (on the heavy chain constant region, which is not given), also called deglycosylated 3F9 variant; deglycosylated form of 3F9) VH: EVKLVESGGGLVKPGGSLKLSCAASGFTFSSYAMSWVRQTPEKRLEWVATISDYGGSYTYYPDSVKGRFTISRDNAKYTLYLQMSSLRSEDTALYYCARPPYDDYYGGFAYWGQGTLVTVSA VL: DIVLTQSPASLAVSLGQRATISCRASKSVSSSGYSYMHWYQQKPGQPPKLLIYLASNLESGVPARFSGSGSGTDFTLNIHPVEEEDAATYYCQHNRELPCTFGGGTKLEIK | – | – | – | – | – | – | – | – | – | – | – | ~1 |
